Columns and labels:
Format in all cases: cell-based, human
[1] = test system: P-JNK1/2(T183/Y185); assay: JNK MAP kinase activation by sMICA plus crosslinking anti-His tag Ab (immunoblot); settings: for phosphorylation of JNK1/2: desensitized EpCAM+CD45− ovarian cancer (OT63), HTB-78, MCF-7-TF cells, sMICA 1 μg/ml crosslinked by anti-His tag Ab, or EGF 100 ng/ml
Description: (§1) NKG2D was immunoprecipitated from standard NP-40 buffer lysates of FACSAria-sorted EpCAM^+CD45^− cancer cells (˜5×10^6 per lane), tumor lines (˜5×10^7 cells; 2×10^7 cells with BT-20), and transfectants (5×10^6 cells) using mAb 5C6 immobilized on AminoLink Plus Coupling Resin (Pierce). DAP10 was immunoprecipitated using rabbit polyclonal antibodies (FL-93; Santa Cruz Biotechnology). Immunoblots were probed with polyclonal antibodies to NKG2D or DAP10 (N-20 and N-17; Santa Cruz Biotechnology), or Grb2 (Cell Signaling Technology) and developed using secondary reagents and Supersignal West Dura Extended Duration Substrate (Pierce). Immunoprecipitation and immunoblot detection of mouse NKG2D utilized a rat mAb (clone 191004; R&D Systems) and goat polyclonal reagent (H-15; Santa Cruz Biotechnology), respectively. For P-AKT induction, cancer cells and tumor lines (2×10^6 cells per experimental condition) cultured in 6-well plates were desensitized for 16 h and 4-24 h, respectively, in serum-free RPMI at 37° C. before exposure in 0.5 ml RPMI to insulin (5 μg/ml; 35 min at 37° C.), mAb 1D11 (purified with MabTrap Kit; GE Healthcare Life Sciences) or mAb 5C6 F(ab′)2 (produced with Pierce F(ab′)2 preparation kit) (each 5 μg/ml; 30 min at 4° C.). For crosslinking, washed cells in 0.2 ml RPMI were exposed to goat anti-mouse F(ab′)2 (20 μg/ml; 5 min at 37° C.; Jackson ImmunoResearch). Wortmannin (100 nM; Sigma) was applied 2 h before stimulations. Reactions were terminated on ice by addition of 1 ml sodium orthovanadate (Na3VO4, 2 mM in cold PBS; Calbiochem) and cells resuspended in NP-40 lysis buffer with protease inhibitor cocktail (Roche) and Na3VO4. Cleared supernatants were subjected to SDS-PAGE (4-12% gradient NuPAGE gels; Invitrogen) and proteins electroblotted onto PVDF membranes (Immobilon-P; Millipore), which were probed with rabbit anti-human phospho-AKT(S473) (clone 193H12) or pan-AKT (clone C67E7), secondary HRP-conjugated anti-rabbit IgG (all from Cell Signaling Technology), and chemiluminescent reagent. […] Inhibitors wortmannin (100 nM) and rapamycin (50 nM; LC Laboratories) were added after 2 h of desensitization. Detached cells were sequentially washed and exposed to 1D11 mAb and crosslinking Ab in 0.5 and 0.2 ml cold HBSS, respectively, and processed as above. […] Phosphoproteins and protein controls were detected using rabbit polyclonal antibodies (to P-mTOR, P-S6K1, and P-4E-BP1), mAbs (clones 7C10, 236B4, and 53H11), and anti-rabbit IgG-HRP (all from Cell Signaling Technology). MAPKs were detected with cells grown to semi-confluence in 6-well plates and desensitized for 24 h. […]
(§2) As determined so far, signaling pathway activation by NKG2D-DAP10 in tumor cells was similar to lymphocytes. […]

[2] = test system: P-ERK1/2(T202/Y204); assay: ERK MAP kinase activation by sMICA plus crosslinking anti-His tag Ab (immunoblot); settings: for phosphorylation of ERK1/2: desensitized EpCAM+CD45− ovarian cancer (OT63), HTB-78, MCF-7-TF cells, sMICA 1 μg/ml crosslinked by anti-His tag Ab, or EGF 100 ng/ml
Description: as §1, §2

[3] = test system: surface NKG2D; assay: Flow cytometry of tumor lines for surface NKG2D; settings: breast, colon, gastric, ovarian, prostate tumor lines after exposure
Experimental: Tumor cell lines BT-20, MDA-MB-453, HTB-78, AGS, MDA-MB-231, DLD-1, PC3, and A375 were grown in RPMI 1640, and MCF-7 in Eagle's minimal essential medium (EMEM) plus insulin (0.01 mg/ml; Sigma), both media supplemented with 10% FBS. The mouse TEC and PAM 212 lines were from the ATCC, and […] was provided by Dr. Norm Greenberg (FHCRC). Abs for immunohistochemistry and flow cytometry of cell surface markers were mAb together with HRP-conjugated secondary reagents and mAb-fluorochrome conjugates, respectively, to NKG2D (clone 1D11, -APC; 3), MICA/MICB (clone 6D4, -PE; 7), CD45 (clone 2D1, -APC-Cy7), CD3 (clone UCHT1) (all from BD Pharmingen), and EpCAM (clone 9C4, -Alexa Fluor 488; BioLegend). Binding of anti-ULBP1-5 antibodies (mAbs 3F1, 6F6, 4F9, 6E6, and 6D10; 14) was visualized with a PE-conjugated secondary reagent. Cancer cell viability was assessed using a LIVE/DEAD Fixable Violet Dead Cell Stain kit (Invitrogen). Immunohistochemistry stainings of tissue cryosections employed the Envision System (Dako) protocol. Cells were examined for mAb surface stainings using a BD LSR II flow cytometer and FlowJo software (Tree Star).

[4] = test system: P-AKT(S473); assay: P-AKT induction after NKG2D crosslinking in freshly isolated cancer cells (immunoblot); settings: sorted EpCAM+CD45− breast, ovarian, prostate cancer cells after serum deprivation; crosslinked Ab 5 μg/ml or insulin 5 μg/ml
Description: (§3) NKG2D was immunoprecipitated from standard NP-40 buffer lysates of FACSAria-sorted EpCAM^+CD45^− cancer cells (˜5×10^6 per lane), tumor lines (˜5×10^7 cells; 2×10^7 cells with BT-20), and transfectants (5×10^6 cells) using mAb 5C6 immobilized on AminoLink Plus Coupling Resin (Pierce). DAP10 was immunoprecipitated using rabbit polyclonal antibodies (FL-93; Santa Cruz Biotechnology). Immunoblots were probed with polyclonal antibodies to NKG2D or DAP10 (N-20 and N-17; Santa Cruz Biotechnology), or Grb2 (Cell Signaling Technology) and developed using secondary reagents and Supersignal West Dura Extended Duration Substrate (Pierce). Immunoprecipitation and immunoblot detection of mouse NKG2D utilized a rat mAb (clone 191004; R&D Systems) and goat polyclonal reagent (H-15; Santa Cruz Biotechnology), respectively. […] Phosphoproteins and protein controls were detected using rabbit polyclonal antibodies (to P-mTOR, P-S6K1, and P-4E-BP1), mAbs (clones 7C10, 236B4, and 53H11), and anti-rabbit IgG-HRP (all from Cell Signaling Technology). MAPKs were detected with cells grown to semi-confluence in 6-well plates and desensitized for 24 h. […]

[5] = test system: P-AKT(S473); assay: P-AKT induction after NKG2D crosslinking in tumor lines (immunoblot); settings: desensitized MCF-7, BT-20, MDA-MB-453, HTB-78, DLD-1, AGS cells
Description: as §3

[6] = test system: P-mTOR(S2448), P-S6K1(T389), and P-4E-BP1(T37/46); assay: Activation of mTOR-S6K1/4E-BP1 after NKG2D crosslinking (immunoblot); settings: HTB-78 and MCF-7-TF cells after starvation
Experimental: Detached cells were sequentially washed and exposed to 1D11 mAb and crosslinking Ab in 0.5 and 0.2 ml cold HBSS, respectively, and processed as above. Sample electrophoresis was in 3-8% (mTOR) and 4-12% (4E-BP1) gradient NuPAGE gels. Phosphoproteins and protein controls were detected using rabbit polyclonal antibodies (to P-mTOR, P-S6K1, and P-4E-BP1), mAbs (clones 7C10, 236B4, and 53H11), and anti-rabbit IgG-HRP (all from Cell Signaling Technology).

[7] = test system: MCF-7-TF cells; assay: Migration through porous filters and invasion in Matrigel assay
Experimental: MCF-7 cells were evaluated for stimulation of cellular migration through porous filters and for invasion of reconstituted basement membranes in MATRIGEL assays (FIG. 10).

[8] = test system: MCF-7-TF cells; assay: EMT-like phenotype of MCF-7-TF cells (phase contrast, IF microscopy, immunoblot)
Description: Diagnostic of EMT, among other criteria, are reduced expression of E-cadherin and induction of N-cadherin (Polyak and Weinberg, 2009; Thiery et al., 2009; Yang and Weinberg, 2008). […] Among key transcription factors is SNAI1 and Twist, which were induced in MCF-7-TF as well as in MCF-10A-TF and SUM149PT-TF cells (FIG. 8C). MCF-7-TF cells also scored increased migratory and invasive activities in Matrigel assays (FIG. 8D). Both ERK- and AKT-initiated signaling have been implicated in cancer EMT (Thiery et al., 2009).

[9] = test system: NKG2D; assay: NKG2D protein depletion by siRNA (immunoblot); settings: CD8 T cells, 2×10^6 per lane
Description: as §3

[10] = test system: AKT(S473) phosphorylation; assay: Inducible AKT phosphorylation in siRNA-transduced MCF-7 cells; settings: lentiviral siRNA transduction
Description: as §3

[11] = test system: MCF-7-TF cells; assay: Cell cycle analysis by propidium iodide staining; settings: MCF-7-TF cells plated 24 h at near confluence without growth factors; Abs each 10 μg/ml
Experimental: DNA contents were determined with 70% EtOH-permeabilized and fixed cells treated with PI/RNase staining buffer (BD Pharmingen). Prior to analysis, cells were plated for 24 h in the presence or absence of each 10 μg/ml anti-MIC and -ULBP3 and -ULBP4 mAb or control Ig. Flow cytometry data were analysed using FlowJo cell cycle software with quantitative analysis based on Dean-Jett-Fox model curve fitting. Cellular ATP was determined using the ATPlite luminescence assay system (PerkinElmer). Real-time oxygen consumption and extracellular acidification rates were measured employing the Seahorse Bioscience Extracellular Flux Analyzer XF24 with cells (3×10^4) seeded in custom 24-well plates and grown overnight (34). Metabolic rates were calculated from multiple measurements in buffer-free medium within one h at 37° C. Differences in cell growth rates were accounted for by using fluorescence emission values of Hoechst stainings to calculate normalization factors for cell number corrections.
The inventors thus explored effects on cellular functions resulting from NKG2D stimulation using the MCF-7 mock-transfected control and MCF-7-TF model cells. Cells were plated at near confluence in the absence of growth factors with or without the relevant anti-MIC and anti-ULBP1/3/4 Abs or control Ig 24 h before assay time (FIG. 7). […]

[12] = test system: DAP10; assay: DAP10 protein depletion by siRNA (immunoblot); settings: CD8 T cells, 2×10^6 per lane
Description: as §3

[13] = test system: MCF-7 cells; assay: Expansion of siRNA-transduced MCF-7 cells
[14] = U0126 10 μM, SP600125 100 μM, wortmannin 200 nM, added 30 min before stimulation
[15] = tumor cell exposure to sMICA or anti-His tag Ab alone, no crosslinking

## EGF: rhEGF, positive control activation of MAP kinases [reference compound]
[1]
  phosphorylation of JNK1/2: positive control activation
[2]
  phosphorylation of ERK1/2: positive control activation

## N#CC(=C(/N)Sc1ccccc1N)/C(C#N)=C(\N)Sc1ccccc1N [U0126, reference compound]
[1]; [14]
  effect of inhibitor on appearance of P-JNK1/2: not vice versa
[2]; [14]
  effect of inhibitor on appearance of P-ERK1/2: diminished

## IL-15: cytokine which induces T cell NKG2D
[3]
  surface NKG2D expression: No increased expression

## insulin: positive control activation of AKT, 5 μg/ml
[4]
  induction of Phospho-AKT (P-AKT): positive control activation except for the unresponsive prostate cancer cells
[5]
  induction of P-AKT: positive control activation
[6]
  induction of P-mTOR(S2448), P-S6K1(T389), P-4E-BP1(T37/46): positive control activation

B1: sMICA: recombinant soluble MICA, His-tagged NKG2D ligand purified from transfected 293T cells (protein)
chain: EPHSLRYNLTVLSWDGSVQSGFLTEVHLDGQPFLRCDRQKCRAKPQGQWAEDVLGNKTWDRETRDLTGNGKDLRMTLAHIKDQKEGLHSLQEIRVCEIHEDNSTRSSQHFYYDGELFLSQNLETKEWTMPQSSRAQTLAMNVRNFLKEDAMKTKTHYHAMHADCLQELRRYLKSGVVLRRTVPPMVNVTRSEASEGNITVTCRASGFYPWNITLSWRQDGVSLSHDTQQWGDVLPDGNGTYQTWVATRICQGEEQRFTCYMEHSGNHSTHPVPSGKVLVLQSHW
modifications: left off: small tags and cut ends
notes: recombinant soluble MICA, His-tagged NKG2D ligand purified from transfected 293T cells
[1]
  phosphorylation of JNK1/2: resulted in phosphorylation
[1]; [15]
  phosphorylation of JNK1/2, reagent alone: no effect
[2]
  phosphorylation of ERK1/2: resulted in phosphorylation
[2]; [15]
  phosphorylation of ERK1/2, reagent alone: no effect

B2: RNAi targeting of NKG2D: lentivirally expressed hairpin siRNA targeting NKG2D (KLRK1) mRNA positions 690-710; oligonucleotides SEQ ID NO:19 and 20 (nucleic acid, listed as Homo sapiens)
chain 1: CTAGACCCAACCTACTAACAATAATTTCAAGAGAATTATTGTTAGTAGGTTGGGTTTTTGAT
chain 2: ATCAAAAAACCCAACCTACTAACAATAATTCTCTTGAAATTATTGTTAGTAGGTTGGGT
modifications: the letters are possibly those of the target site
[7]
  migratory and invasive activities: suppressed
[8]; IF microscopy and immunoblot
  changes in epithelial and mesenchymal marker proteins (E-cadherin, N-cadherin): reversed
[8]; phase contrast microscopy
  cell morphology: restored the parental cell morphology
[9]
  depletion of NKG2D: depletion
[10]
  inducible AKT(S473) phosphorylation: Absence of inducible AKT(S473) phosphorylation
[11]
  effect on enlarged proportions of cells in S and G2 phase: reversed

B3: DAP10 siRNA: lentivirally expressed hairpin siRNA targeting DAP10 (HCST) mRNA positions 165-193; oligonucleotides SEQ ID NO:21 and 22 (nucleic acid, listed as Homo sapiens)
chain 1: CTAGAAGCTCAGACGACTCCAGGAGAGAGATCATTCAAGAGATGATCTCTCTCCTGGAGTCGTCTGAGCTTTTTTTGAT
chain 2: ATCAAAAAAAGCTCAGACGACTCCAGGAGAGAGATCATCTCTTGAATGATCTCTCTCCTGGAGTCGCTGAGCTT
modifications: the letters are possibly those of the target site
[10]
  inducible AKT(S473) phosphorylation: Absence of inducible AKT(S473) phosphorylation
[12]
  depletion of DAP10: depletion
[13]
  proliferation of transduced cells: proliferated poorly

Source: patent publication US10040853B2, “Methods and compositions involving NKG2D inhibitors and cancer” (Fred Hutchinson Cancer Research Center, priority 2011, dated 2018)
